According to US9175305B2, “Mutant hydroxyphenylpyruvate dioxygenase polypeptides and methods of use” (Syngenta Participations AG, priority 2009, dated 2015):

Assay: Km and kcat of expressed HPPDs (HPLC/UV quantitation of homogentisate)
Type: biochemical, Avena sativa
Conditions: for Km / kcat: HPPDs expressed in extracts, 25° C., pH 7.0; for kcat: one active-site per dimer assumed; for Rate: kcat relative to non-mutated HPPD SEQ ID NO:14: for V217I, L271I, L271V, V258M, A326R estimated from initial rates in cell extracts, pH 7.0, 25° C., 120 μM HPP
Description: The assay solution was transferred to Chromacol 03-CVG HPLC vials, sealed and the amount of homogentisate formed in a 40 μl aliquot determined by injection onto a reverse phase Aqua C18 5μ 75×4.6 mm HPLC column running 5.5% acetonitrile 0.1% TFA (Buffer A) at 1.5 ml/min. The column was eluted at 1.5 ml/minute using a 2 minute wash in buffer A, followed by a 2 minute wash in a 30/70 mixture of buffer A and 100% Acetonitrile, and a further 3.5 minute wash in buffer A. The elution of homogentisate was monitored by UV at 292 nm and the amount formed in each reaction quantified by comparison with a standard calibration curve.
Km and Vmax values were determined (for example FIG. 1) using a non linear least squares fit using Grafit 4™ software (Erithacus Software, Middlesex, UK). Kcat values were determined by dividing the maximum rate, Vmax expressed in nmol/second by the number of nmoles of HPPD enzyme (based on the concentration determined by active-site titration).
Experiments were carried out as described for Table 4. ‘Sulc’ denotes sulcotrione and ‘nd’ means ‘no data’. For V217I, L271I, L271V, V258M and A326R, the relative values of kcat were estimated from comparisons of the initial rates in cell extracts of similarly prepared and expressed HPPDs in conventional enzyme activity assays at pH 7.0, 25° C. and at a substrate concentration of 120 μM HPP.

B1: SEQ ID #24: SEQ ID NO:14 with substitution of M for L within the sequence motif G(I,V)LVDRD (protein, listed as Avena sativa)
chain: MPPTPATATGAAAAAVTPEHAARSFPRVVRVNPRSDRFPVLSFHHVELWCADAASAAGRFSFALGAPLAARSDLSTGNSAHASLLLRSGALAFLFTAPYAPPPQEAATAATASIPSFSADAARTFAAAHGLAVRSVGVRVADAAEAFRVSVAGGARPAFAPADLGHGFGLAEVELYGDVVLRFVSYPDETDLPFLPGFERVSSPGAVDYGLTRFDHVVGNVPEMAPVIDYMKGFLGFHEFAEFTAEDVGTTESGLNSVVLANNSEAVLLPLNEPVHGTKRRSQIQTYLEYHGGPGVQHIALASNDVLRTLREMRARTPMGGFEFMAPPQAKYYEGVRRIAGDVLSEEQIKECQELGVMVDRDDQGVLLQIFTKPVGDRPTFFLEMIQRIGCMEKDEVGQEYQKGGCGGFGKGNFSELFKSIEDYEKSLEVKQSVVAQKS
  Km: 4.74 µM
  kcat: 4.35 s⁻¹

B2: SEQ ID #26: SEQ ID NO:14 with M for L within G(I,V)LVDR and M for L within SGLNS (protein, listed as Avena sativa)
chain: MPPTPATATGAAAAAVTPEHAARSFPRVVRVNPRSDRFPVLSFHHVELWCADAASAAGRFSFALGAPLAARSDLSTGNSAHASLLLRSGALAFLFTAPYAPPPQEAATAATASIPSFSADAARTFAAAHGLAVRSVGVRVADAAEAFRVSVAGGARPAFAPADLGHGFGLAEVELYGDVVLRFVSYPDETDLPFLPGFERVSSPGAVDYGLTRFDHVVGNVPEMAPVIDYMKGFLGFHEFAEFTAEDVGTTESGMNSVVLANNSEAVLLPLNEPVHGTKRRSQIQTYLEYHGGPGVQHIALASNDVLRTLREMRARTPMGGFEFMAPPQAKYYEGVRRIAGDVLSEEQIKECQELGVMVDRDDQGVLLQIFTKPVGDRPTFFLEMIQRIGCMEKDEVGQEYQKGGCGGFGKGNFSELFKSIEDYEKSLEVKQSVVAQKS
  Km: 10.6 µM
  kcat: 4.05 s⁻¹

B3: SEQ ID #14: HPPD derived from Avena sativa; single deletion variant of the Avena sativa HPPD (protein)
chain: MPPTPATATGAAAAAVTPEHAARSFPRVVRVNPRSDRFPVLSFHHVELWCADAASAAGRFSFALGAPLAARSDLSTGNSAHASLLLRSGALAFLFTAPYAPPPQEAATAATASIPSFSADAARTFAAAHGLAVRSVGVRVADAAEAFRVSVAGGARPAFAPADLGHGFGLAEVELYGDVVLRFVSYPDETDLPFLPGFERVSSPGAVDYGLTRFDHVVGNVPEMAPVIDYMKGFLGFHEFAEFTAEDVGTTESGLNSVVLANNSEAVLLPLNEPVHGTKRRSQIQTYLEYHGGPGVQHIALASNDVLRTLREMRARTPMGGFEFMAPPQAKYYEGVRRIAGDVLSEEQIKECQELGVLVDRDDQGVLLQIFTKPVGDRPTFFLEMIQRIGCMEKDEVGQEYQKGGCGGFGKGNFSELFKSIEDYEKSLEVKQSVVAQKS
modifications: mutant HPPD polypeptide
  Km: 5.38 µM
  kcat: 6.46 s⁻¹
  Rate: kcat relative to non-mutated HPPD SEQ ID NO:14: 1

B4: SEQ ID #18: SEQ ID NO:14 with substitution of T for I within the sequence motif SQIQTY (protein, listed as Avena sativa)
chain: MPPTPATATGAAAAAVTPEHAARSFPRVVRVNPRSDRFPVLSFHHVELWCADAASAAGRFSFALGAPLAARSDLSTGNSAHASLLLRSGALAFLFTAPYAPPPQEAATAATASIPSFSADAARTFAAAHGLAVRSVGVRVADAAEAFRVSVAGGARPAFAPADLGHGFGLAEVELYGDVVLRFVSYPDETDLPFLPGFERVSSPGAVDYGLTRFDHVVGNVPEMAPVIDYMKGFLGFHEFAEFTAEDVGTTESGLNSVVLANNSEAVLLPLNEPVHGTKRRSQTQTYLEYHGGPGVQHIALASNDVLRTLREMRARTPMGGFEFMAPPQAKYYEGVRRIAGDVLSEEQIKECQELGVLVDRDDQGVLLQIFTKPVGDRPTFFLEMIQRIGCMEKDEVGQEYQKGGCGGFGKGNFSELFKSIEDYEKSLEVKQSVVAQKS
  Km: 36 µM
  kcat: 17.94 s⁻¹

B5: SEQ ID #21: SEQ ID NO:14 with substitution of V for I within the sequence motif SQIQTY (protein, listed as Avena sativa)
chain: MPPTPATATGAAAAAVTPEHAARSFPRVVRVNPRSDRFPVLSFHHVELWCADAASAAGRFSFALGAPLAARSDLSTGNSAHASLLLRSGALAFLFTAPYAPPPQEAATAATASIPSFSADAARTFAAAHGLAVRSVGVRVADAAEAFRVSVAGGARPAFAPADLGHGFGLAEVELYGDVVLRFVSYPDETDLPFLPGFERVSSPGAVDYGLTRFDHVVGNVPEMAPVIDYMKGFLGFHEFAEFTAEDVGTTESGLNSVVLANNSEAVLLPLNEPVHGTKRRSQVQTYLEYHGGPGVQHIALASNDVLRTLREMRARTPMGGFEFMAPPQAKYYEGVRRIAGDVLSEEQIKECQELGVLVDRDDQGVLLQIFTKPVGDRPTFFLEMIQRIGCMEKDEVGQEYQKGGCGGFGKGNFSELFKSIEDYEKSLEVKQSVVAQKS
  Km: 5.98 µM
  kcat: 5.47 s⁻¹

B6: SEQ ID #22: SEQ ID NO:14 with substitution of M for L within the sequence motif SGLNS (protein, listed as Avena sativa)
chain: MPPTPATATGAAAAAVTPEHAARSFPRVVRVNPRSDRFPVLSFHHVELWCADAASAAGRFSFALGAPLAARSDLSTGNSAHASLLLRSGALAFLFTAPYAPPPQEAATAATASIPSFSADAARTFAAAHGLAVRSVGVRVADAAEAFRVSVAGGARPAFAPADLGHGFGLAEVELYGDVVLRFVSYPDETDLPFLPGFERVSSPGAVDYGLTRFDHVVGNVPEMAPVIDYMKGFLGFHEFAEFTAEDVGTTESGMNSVVLANNSEAVLLPLNEPVHGTKRRSQIQTYLEYHGGPGVQHIALASNDVLRTLREMRARTPMGGFEFMAPPQAKYYEGVRRIAGDVLSEEQIKECQELGVLVDRDDQGVLLQIFTKPVGDRPTFFLEMIQRIGCMEKDEVGQEYQKGGCGGFGKGNFSELFKSIEDYEKSLEVKQSVVAQKS
  Km: 12.4 µM
  kcat: 5.79 s⁻¹

B7: V217I: V217I mutant of HPPD SEQ ID NO:14 (protein)
chain: MPPTPATATGAAAAAVTPEHAARSFPRVVRVNPRSDRFPVLSFHHVELWCADAASAAGRFSFALGAPLAARSDLSTGNSAHASLLLRSGALAFLFTAPYAPPPQEAATAATASIPSFSADAARTFAAAHGLAVRSVGVRVADAAEAFRVSVAGGARPAFAPADLGHGFGLAEVELYGDVVLRFVSYPDETDLPFLPGFERVSSPGAVDYGLTRFDHIVGNVPEMAPVIDYMKGFLGFHEFAEFTAEDVGTTESGLNSVVLANNSEAVLLPLNEPVHGTKRRSQIQTYLEYHGGPGVQHIALASNDVLRTLREMRARTPMGGFEFMAPPQAKYYEGVRRIAGDVLSEEQIKECQELGVLVDRDDQGVLLQIFTKPVGDRPTFFLEMIQRIGCMEKDEVGQEYQKGGCGGFGKGNFSELFKSIEDYEKSLEVKQSVVAQKS
modifications: mutant HPPD polypeptide
  Rate: kcat relative to non-mutated HPPD SEQ ID NO:14: 1.1

B8: L281I: mutant of HPPD SEQ ID NO:14, called L271I in the text (protein)
chain: MPPTPATATGAAAAAVTPEHAARSFPRVVRVNPRSDRFPVLSFHHVELWCADAASAAGRFSFALGAPLAARSDLSTGNSAHASLLLRSGALAFLFTAPYAPPPQEAATAATASIPSFSADAARTFAAAHGLAVRSVGVRVADAAEAFRVSVAGGARPAFAPADLGHGFGLAEVELYGDVVLRFVSYPDETDLPFLPGFERVSSPGAVDYGLTRFDHVVGNVPEMAPVIDYMKGFLGFHEFAEFTAEDVGTTESGLNSVVLANNSEAVLLPINEPVHGTKRRSQIQTYLEYHGGPGVQHIALASNDVLRTLREMRARTPMGGFEFMAPPQAKYYEGVRRIAGDVLSEEQIKECQELGVLVDRDDQGVLLQIFTKPVGDRPTFFLEMIQRIGCMEKDEVGQEYQKGGCGGFGKGNFSELFKSIEDYEKSLEVKQSVVAQKS
modifications: mutant HPPD polypeptide
  Rate: kcat relative to non-mutated HPPD SEQ ID NO:14: 1.7

B9: L281V: mutant of HPPD SEQ ID NO:14, called L271V in the text (protein)
chain: MPPTPATATGAAAAAVTPEHAARSFPRVVRVNPRSDRFPVLSFHHVELWCADAASAAGRFSFALGAPLAARSDLSTGNSAHASLLLRSGALAFLFTAPYAPPPQEAATAATASIPSFSADAARTFAAAHGLAVRSVGVRVADAAEAFRVSVAGGARPAFAPADLGHGFGLAEVELYGDVVLRFVSYPDETDLPFLPGFERVSSPGAVDYGLTRFDHVVGNVPEMAPVIDYMKGFLGFHEFAEFTAEDVGTTESGLNSVVLANNSEAVLLPVNEPVHGTKRRSQIQTYLEYHGGPGVQHIALASNDVLRTLREMRARTPMGGFEFMAPPQAKYYEGVRRIAGDVLSEEQIKECQELGVLVDRDDQGVLLQIFTKPVGDRPTFFLEMIQRIGCMEKDEVGQEYQKGGCGGFGKGNFSELFKSIEDYEKSLEVKQSVVAQKS
modifications: mutant HPPD polypeptide
  Rate: kcat relative to non-mutated HPPD SEQ ID NO:14: 2
